# T1: Snu13 (Saccharomyces cerevisiae, UniProt P39990 1-126)
# T1 sequence: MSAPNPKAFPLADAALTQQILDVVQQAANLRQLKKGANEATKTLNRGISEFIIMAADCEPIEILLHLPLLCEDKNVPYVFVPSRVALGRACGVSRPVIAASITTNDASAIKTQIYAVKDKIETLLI
# T2: Snu13 R95VI98A (Saccharomyces cerevisiae, UniProt P39990 1-126, R95V;I98A)
# T2 sequence: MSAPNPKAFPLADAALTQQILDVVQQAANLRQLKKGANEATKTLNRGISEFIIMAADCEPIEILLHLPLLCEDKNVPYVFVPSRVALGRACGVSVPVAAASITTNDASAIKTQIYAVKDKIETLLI
# T3: Snu13 V93IR95V (Saccharomyces cerevisiae, UniProt P39990 1-126, V93I;R95V)
# T3 sequence: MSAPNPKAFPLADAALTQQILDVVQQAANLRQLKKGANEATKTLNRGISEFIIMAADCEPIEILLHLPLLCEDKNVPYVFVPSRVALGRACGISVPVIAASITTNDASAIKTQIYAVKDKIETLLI
# T4: Snu13 R95VP96A (Saccharomyces cerevisiae, UniProt P39990 1-126, R95V;P96A)
# T4 sequence: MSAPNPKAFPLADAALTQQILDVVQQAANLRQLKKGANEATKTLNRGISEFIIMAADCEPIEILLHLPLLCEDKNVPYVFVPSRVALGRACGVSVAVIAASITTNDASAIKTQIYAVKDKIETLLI
# Legend:
# L7Ae [1] = biological target: T5, L7Ae (Pyrococcus furiosus, UniProt Q8U160 1-123); assay: EMSA; EMSA: annealed in 10 mM Tris-HCl, 100 mM NaCl, 1 mM EDTA, pH 7.5; 4 C, 10% native PAGE; 10 pmol Cy5-RNA (~2 uM) or 0.5 nmol unlabeled RNA. RNP: 20 mM Na phospha
# Snu13 = biological target: T1, Snu13; assay: EMSA (ethidium bromide); ~100 uM RNA; EMSA: annealed in 10 mM Tris-HCl, 100 mM NaCl, 1 mM EDTA, pH 7.5; 4 C, 10% native PAGE; 10 pmol Cy5-RNA (~2 uM) or 0.5 nmol unlabeled RNA. RNP: 20 mM Na phosphate, 500 mM NaCl, pH 6.6; settings: protein: recombinant; tags: N-terminal His6, TEV-cleaved; k-turn
# Snu13 R95VI98A = biological target: T2, Snu13 R95VI98A; assay: EMSA; better than wild type; EMSA: annealed in 10 mM Tris-HCl, 100 mM NaCl, 1 mM EDTA, pH 7.5; 4 C, 10% native PAGE; 10 pmol Cy5-RNA (~2 uM) or 0.5 nmol unlabeled RNA. RNP: 20 mM Na phosphate, 500 mM NaCl, pH 6.6; settings: protein: recombinant; tags: N-terminal His6, TEV-cleaved; label: 5'-Cy5; k-turn
# Snu13 V93IR95V [2] = biological target: T3, Snu13 V93IR95V; assay: as above; settings: protein: recombinant; tags: N-terminal His6, TEV-cleaved; label: 5'-Cy5; k-turn
# Snu13 R95VP96A [3] = biological target: T4, Snu13 R95VP96A; assay: as above; settings: protein: recombinant; tags: N-terminal His6, TEV-cleaved; label: 5'-Cy5; k-turn
# L7Ae [4] = biological target: T5, L7Ae; assay: EMSA; affinity not improved over snR51-kl1; EMSA: annealed in 10 mM Tris-HCl, 100 mM NaCl, 1 mM EDTA, pH 7.5; 4 C, 10% native PAGE; 10 pmol Cy5-RNA (~2 uM) or 0.5 nmol unlabeled RNA. RNP: 20 mM Na phospha
# Snu13 V93IR95V [5] = biological target: T3, Snu13 V93IR95V; assay: EMSA; EMSA: annealed in 10 mM Tris-HCl, 100 mM NaCl, 1 mM EDTA, pH 7.5; 4 C, 10% native PAGE; 10 pmol Cy5-RNA (~2 uM) or 0.5 nmol unlabeled RNA. RNP: 20 mM Na phosphate, 500 mM NaCl, pH 6.6; settings: protein: recombinant, tags: N-terminal His6, TEV-cleaved, label: 5'-Cy5
# Snu13 R95VP96A [6] = biological target: T4, Snu13 R95VP96A; assay: as above; settings: protein: recombinant, tags: N-terminal His6, TEV-cleaved, label: 5'-Cy5
# L7Ae [7] = biological target: T5, L7Ae; assay: EMSA; similar to snR51-kl1; EMSA: annealed in 10 mM Tris-HCl, 100 mM NaCl, 1 mM EDTA, pH 7.5; 4 C, 10% native PAGE; 10 pmol Cy5-RNA (~2 uM) or 0.5 nmol unlabeled RNA. RNP: 20 mM Na phospha
binder,measurement,setting,value
UACUAGAUUGGUCUCUUUCAAGAAGGGGCUAAUUGAUGA (structured_RNA) [snR51-kl1],Kd,L7Ae [1],< 141 nM
UACGAGAUUGGUCUCUUUCAAGAAGGGGCUAAUUGAUGA (structured_RNA) [snR51-kl2 unlabeled],binding result,Snu13,binds
UACGAGAUUGGUCUCUUUCAAGAAGGGGCUAAUUGAUGA (structured_RNA) [snR51-kl2],binding result,Snu13 R95VI98A,binds
same,binding result,Snu13 V93IR95V [2],binds
same,binding result,Snu13 R95VP96A [3],binds
same,binding result,L7Ae [4],binds
ACUGACUGUGAUCAAACGAUCUUGAAGA (structured_RNA) [snR54-kl2],binding result,Snu13 V93IR95V [5],binds
same,binding result,Snu13 R95VP96A [6],binds
UACGAAAUAGUUGAUGA (structured_RNA) [snR51-kl4],binding result,L7Ae [7],binds
ACUGACUGUGAUCAAACGAUCUUGUAGA (structured_RNA) [snR54-kl1],binding result,L7Ae [1],no binding
same,binding result,Snu13 V93IR95V [5]; non-canonical k-turn,binds
same,binding result,Snu13 R95VP96A [6]; non-canonical k-turn,binds
UACUAAAUAGUUGAUGA (structured_RNA) [snR51-kl3],binding result,Snu13 V93IR95V [5]; k-loop,binds
ACUGAAAUAGUUGUAGA (structured_RNA) [snR54-kl3],binding result,Snu13 V93IR95V [5]; k-loop,binds

# — article PMC8413462, “Eukaryotic Box C/D methylation machinery has two non-symmetric protein assembly sites”
